In patent US20190262327A1 (AstraZeneca / MedImmune, published 2019):

Assays:
[1] = target: T1, biotinylated synthetic human Amyloid beta 1-42 peptide (human, UniProt P05067 672-713, biotinylated (N-terminal biotin in Example 4)); test: SPR (ProteOn); biotinylated peptide on streptavidin chip, scFv in solution
T1 construct: domain: Amyloid beta 1-42 peptide; Numbers 1-42 count on the Amyloid beta peptide, not on APP; also called biotinylated human Amyloid beta 1-42; N-terminal biotin Abeta 1-42
Description: These experiments were performed essentially as described by Karlsson et al. (Karlsson et al., 1991).
The chip surface was regenerated between cycles by a single 60 second injection of 10 mM Glycine pH 2.0 to remove scFv bound to the peptide.
Each scFv at 100-200 nM was sequentially passed over the peptide surface for a sufficient amount of time to observe sensorgrams that could be fitted to an appropriate binding model with confidence. An irrelevant scFv blank was subtracted from the main dataset to reduce the impact of any buffer artefacts or non-specific binding effects. An appropriate binding model was then fitted to the data.

[2] = target: T1, biotinylated synthetic human Amyloid …; test: HTRF epitope competition; purified scFv titrated; competitor Abet0144-GL IgG1-TM
Description: (§1) Two thousand and twenty four scFv chosen at random from selection rounds 3 and 4 of the targeted mutagenesis approach described in section 1.2 were expressed in bacteria to produce unpurified periplasmic scFv.
(§2) One thousand six hundred and seventy two scFv, randomly selected from selection rounds 9 to 11, were screened in an epitope competition assay as described in section 1.3.
(§3) Where the assay was performed more than once, the absolute range of IC₅₀ values is provided.

[3] = target: T1, biotinylated synthetic human Amyloid …; test: HTRF epitope competition; purified scFv titrated; competitor Abet0144-GL IgG1-TM; range of repeats
Description: as §1, §2, §3

[4] = target: T2, Abet0380-GL (germlined) IgG1-TM; test: HTRF competition: unlabelled peptide titrated against the binding of N-terminal biotin Abeta 1-42 (1.5 nM) to Abet0380-GL IgG1-TM (0.5 nM)
T2 construct: also called Abet0380-GL IgG1-TM; Abet0380-GL IgG1TM
Description: The assay was then incubated for a further 2 hrs at room temperature before reading on an Envision plate reader (PerkinElmer) using a standard homogeneous time resolved fluorescence (HTRF) read protocol.
The final assay volume was 20 μl and all reagents were prepared in an assay buffer comprising MOPS pH7.4 (50 mM), potassium fluoride (0.4M), tween 20 (0.1%) & fatty acid free BSA (0.1%). The assay was performed in low volume 384 well black assay plates (Costar 3676).

T1 sequence (P05067 672-713 limits assumed): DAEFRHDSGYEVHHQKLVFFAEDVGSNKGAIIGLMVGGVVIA

Row | Binder | Kd [1] | koff [1] | kon [1] | IC50 [2] | IC50 [3] | binding result [4] | IC50 (read off the curve) [4]
1 | Abet0332 scFv (scFv, V domains shown, not shown: small tags and cut ends, Purified scFv expressed in E. coli) VH: EVQLLESGGGLVQPGESLRLSCAASSDSWHTDIMWWVRQAPGKRLEWVSVIGNSNKKIAYADSVKGRFTISRDNSKNTLYLQMNSLRAEDTAVYYCAREWMDHSRPYYYYGMDVWGQGTLVTVSS VL: SYELTQPPSVSVSPGQTASITCSGHNIGAKWVSWYQQKPGQSPILVIYRDDKRPSGIPERFSASNSGHTATLTISGTQATDEADYYCQAQGQVTRSFGGGTKLTVL | 0.391 nM | 0.000129 s⁻¹ | 329000 M⁻¹ s⁻¹ | 0.91 nM | – | – | –
2 | Abet0372 scFv (scFv, V domains shown, not shown: small tags and cut ends, Purified scFv expressed in E. coli) VH: EVQLLESGGGLVQPGGSLRLSCAASSDMFNIETMWWVRQAPGKGLEWVSVIGKGMNNVSYADSVKGRFTISRDNSKNTLYLQMNSLRAEDTAVYYCAREWMDHSRPYYYYGMDVWGQGTLVTVSS VL: SYELTQPPSVSVSPGQTASITCSGHNLEDKFASWYQQKPGQSPVLVIYRDDKRPSGIPERFSASNSGHTATLTISGTQATDEADYYCSSQDTVTRVFGGGTKLTVL | 0.724 nM | 0.000176 s⁻¹ | 243000 M⁻¹ s⁻¹ | 0.38 nM | 0.26 to 0.49 nM | – | –
3 | Abet0322b scFv (scFv, V domains shown, not shown: small tags and cut ends, Purified scFv expressed in E. coli) VH: EVQLLESGGGLVQPGGSLRLSCAASNEEFQYNPMWWVRQAPGKGLEWVSVIGSSGGATVYADAVKGRFTISRDNSENTLYLQMNSLRAEDTAVYYCAREWMDHSRPYYYYGMDVWGQGTLVTVSS VL: SYELTQPPSVSVSPGQTASITCSGHNLGDKFASWYQQKPGQSPVLVIYRDDKRPSEIPERFSASNSGHTATLTISGTQATDEADYYCSSQDTVTRVFGGGTKLTVL | 0.812 nM | 0.000165 s⁻¹ | 203000 M⁻¹ s⁻¹ | 0.71 nM | 0.43 to 0.98 nM | – | –
4 | Abet0144-GL scFv (scFv, V domains shown, not shown: small tags and cut ends, Purified scFv expressed in E. coli; also called parent clone) VH: EVQLLESGGGLVQPGGSLRLSCAASGFTFSVYTMWWVRQAPGKGLEWVSVIGSSGGTTVYADSVKGRFTISRDNSKNTLYLQMNSLRAEDTAVYYCAREWMDHSRPYYYYGMDVWGQGTLVTVSS VL: SYELTQPPSVSVSPGQTASITCSGHNLEDKFASWYQQKPGQSPVLVIYRDDKRPSGIPERFSASNSGHTATLTISGTQAMDEADYYCQAQDSTTRVFGGGTKLTVL | 58.7 nM | 0.0066 s⁻¹ | 116000 M⁻¹ s⁻¹ | 14 nM | 8.1 to 18 nM | – | –
5 | Abet0368 scFv (scFv, V domains shown, not shown: small tags and cut ends, Purified scFv expressed in E. coli) VH: EVQLLESGGGLVQPGGSLRLSCAASGFDFGPSPMWWVRQAPGKGLEWVSVIGKDTQNSTYADSVKGRFTISRDNSKDTLYLQMNSLKAEDTAVYYCAREWMDHSRPYYYYGMDVWGQGTLVTVSS VL: SYELTQPPSVSVSPGQTASITCSGHNLEDKFTSWYQQKSGQSPVLVIYRDDKRPSGIPERFSASNSGHTATLTISGAQATDEADYYCSSQDTVTRVFGGGTKLTVL | 0.482 nM | 9e-05 s⁻¹ | 187000 M⁻¹ s⁻¹ | 0.55 nM | – | – | –
6 | Abet0321b scFv (scFv, V domains shown, not shown: small tags and cut ends, Purified scFv expressed in E. coli) VH: EVQLLESGGGLVQPGGSLRLSCAASAYHSNHDPMWWVRQAPGKGLEWVSVIGSSGGTTAYADSVKGRFTISRDNSKNTLYLQMNSLRAEDTAVYYCAREWMDHSRPYYYYGMDVWGQGTLVTVSS VL: SYELTQPPSVSVSPGQTASITCSGHNLEDKFASWYQQKPGQSPVLIIYRDDKRPSGIPERFSASNSGHTATLTISGTQATDEADYYCSSQDTVTRVFGGGTKLTVL | 0.222 nM | 3.33e-05 s⁻¹ | 150000 M⁻¹ s⁻¹ | 0.73 nM | 0.69 to 0.76 nM | – | –
7 | Abet0371 scFv (scFv, V domains shown, not shown: small tags and cut ends, Purified scFv expressed in E. coli) VH: EVQLSESGGGLVQPGGSLRLSCAASHDAFPFDTMWWVRQAPGKGLEWVSVIGSSGGTTVYADSVKGRFTVSRDNSKNTLYLQMNSLRAEDTAVYYCAREWMDHSRPYYYYGMDVWGQGTLVTVSS VL: SYELTQPPSVSVSPGQTASITCSGHNISSSWVSWYQQKPGQSPVLVIYRDDKRPSGIPERFSASNSGHTATLTISGTQATDEADYYCSSQDTVTRVFGGGTKLTVL | 0.762 nM | 0.000272 s⁻¹ | 357000 M⁻¹ s⁻¹ | 0.5 nM | 0.46 to 0.53 nM | – | –
8 | Abet0323b scFv (scFv, V domains shown, not shown: small tags and cut ends, Purified scFv expressed in E. coli) VH: EVQLLESGGGLVQPGGSLRLSCAASTSTFQEDTMWWVRQAPGKGLEWVSVIGPNPKNNAYADSVKGRFTISRDNSKNTLYLQMNSLRAEDTAVYYCAREWMDHSRPYYYYGMDVWGQGTLVTVSS VL: SYELTQPPSVSVSPGQTASITCSGHNLEDKFASWYQQKPGQSPVLVIYRDDKRPSGVPERFSASNSGHTATLTISGTQATDEADYYCSSQDTVTRVFGGGTKLIVL | 0.894 nM | 0.000188 s⁻¹ | 210000 M⁻¹ s⁻¹ | 0.67 nM | 0.57 to 0.76 nM | – | –
9 | Abet0342 scFv (scFv, V domains shown, not shown: small tags and cut ends, Purified scFv expressed in E. coli) VH: EVQLLESGGGLVQPGGSLRLSCAASGFDFRRSVMWWVRQAPGKGLEWVSVIGAQTQNKAYADSVKGRFTISRDNSKNTLYLQMNSLRAEDTAVYYCAREWMDHSRPYYYYGMDVWGQGTLVTVSS VL: SYELTQPPSVSVSPGQTASITCSGHNLEDKFASWYQQKPGQSPVLVIYRDDKRPSGIPERFSASNSGDTATLTISGTQAMDEADYYCQAQDSTTRVFGGGTKLTVL | 0.421 nM | 5.73e-05 s⁻¹ | 136000 M⁻¹ s⁻¹ | 0.59 nM | – | – | –
10 | Abet0344 scFv (scFv, V domains shown, not shown: small tags and cut ends, Purified scFv expressed in E. coli) VH: EVQLLESGGGLVQPGGSLSLSCAASGFTFSVYTMWWVRQAPGKGLEWVSVIGGNETRKAYADSVKGRFTISRDNSKNRLYLQMNSLRAEDTAVYYCAREWMDHSRPYYYYGMDVWGQGTLVTVSS VL: QSVLTQPPSVSVSPGQTASITCSGHNLEDKFASWYQQKSGQSPVLVIYRDDKRPSGIPERFSASNSGHTATLTISGTQATDEADYYCATQDNFTRVFGGGTKLTVL | 0.739 nM | 5.73e-05 s⁻¹ | 77500 M⁻¹ s⁻¹ | 0.77 nM | – | – | –
11 | Abet0319 scFv (scFv, V domains shown, not shown: small tags and cut ends, Purified scFv expressed in E. coli) VH: EVQLLESGGGLVQPGGSLRLSCAASVSVYNKDTMWWVRQAPGKGLEWVSVIGSSGGTTVYADSVKGRFTISRDNSKNTLYLQMNSLRAEDTAVYYCAREWMDHSRPYYYYGMDVWGQGTLVTVSS VL: SYELTQPPSVSVSPGQTASITCSGHNIMDKWVSWYQQKPGRSPALVIYRDDKRPSGIPERFSASNSGHTATLTISGTQATDEADYYCSSQDTVTRVFGGGTKLTVL | 0.391 nM | 0.000129 s⁻¹ | 329000 M⁻¹ s⁻¹ | 0.68 nM | 0.52 to 0.76 nM | – | –
12 | Abet0374 scFv (scFv, V domains shown, not shown: small tags and cut ends, Purified scFv expressed in E. coli) VH: EVQLLESGGGLVQPGGSLRLSCAASGFQFKDTPMWWVRQAPGKGLEWVSVIGDQNHKKAYADSVKGRFTISRDNSKNTLYLQMNSLRAEDTAVYYCAREWMDHSRPYYYYGMDAWGQGTLVTVSS VL: SYELTQPPSVSVTPGQTASITCSGHNLGGKFASWYQQKPGQSPVLVIYRDDKRPSGIPERFSASNFGHTATLTISGTQATDEADYYCSSQDTVTRVFGGGTKLTVL | 0.236 nM | 6.04e-05 s⁻¹ | 256000 M⁻¹ s⁻¹ | 0.42 nM | 0.41 to 0.43 nM | – | –
13 | VHHQKLVFFAEDVGSNK (peptide, UniProt P05067 683-699, looked up, domain: Abeta 12-28) [human Abeta 12-28 peptide] | – | – | – | – | – | no binding (tested: log -5 M (10 uM)) | –
14 | DAEFRHDSGYEVHHQK (peptide, UniProt P05067 672-687, looked up, domain: Abeta 1-16) [human Abeta 1-16 peptide] | – | – | – | – | – | no binding (tested: log -5 M (10 uM)) | –
15 | Abet0370 scFv (scFv, V domains shown, not shown: small tags and cut ends, Purified scFv expressed in E. coli) VH: EVQLLESGGGLVQPGGSLRLSCAASGFHFPMSAMWWVRQAPGKGLEWVSVIGETPERQAYADSVKGRFTISRDNSKSTLYLQMNSLRAEDTAVYYCAREWMDHSRPYYYYGMDVWGQGTLVTVSS VL: SYELTQPPSVSVSPGQTASITCTTPHFNSKFASWYQQKPGQSPVLVIYRDDKRPSGIPERFSASNSGHTATLTISGTQAMDEADYYCQAQDSTTRVFGGGTRLTVL | 0.651 nM | 7.76e-05 s⁻¹ | 119000 M⁻¹ s⁻¹ | 0.76 nM | – | – | –
16 | LVFFAEDVGSNKGAIIGLMVGGVVIA (peptide, UniProt P05067 688-713, looked up, domain: Abeta 17-42) [human Abeta 17-42 peptide] | – | – | – | – | – | – | ~5 nM
